Stoichiometry N data for one substance are collected here from publication doi:10.1101/2023.12.01.569544.

The target of the experiment is HIV-1 capsid A14C/E45C/W184A/M185A (HIV-CA) (HIV-1). The experiment can be described thus: SEC.

The substance “HIV-1 capsid A14C/E45C/W184A/M185A (HIV-CA) (natural protein)” showed a stoichiometry N of 6.
